The values below come from patent publication US20130209454A1 (CALIFORNIA INSTITUTE OF TECHNOLOGY, published 2013).

Like-named read-outs stand apart in the source and are kept apart here.

Experiment in all cases: cell-based or functional assay
The target of test [1] is HIV-1 Env of strain Du156.12 (HIV-1).
Test [2] has as its target HIV-1 Env of strain ZM135M.PL10a (HIV-1).
Test [3] addresses HIV-1 Env of strain ZM109F.PB4 (HIV-1).
For test [4], the target named is HIV-1 Env of strain ZM249M.PL1 (HIV-1).
Test [5] has as its target HIV-1 Env of strain ZM53M.PB12 (HIV-1).
In test [6] the target is HIV-1 Env of strain ZM197M.PB7 (HIV-1).
The target of test [7] is HIV-1 Env of strain ZM214M.PL15 (HIV-1).
Test [8] has as its target HIV-1 Env of strain T257-31 (HIV-1).
Test [9] has as its target HIV-1 Env of strain CAP45.2.00.G3 (HIV-1).
The target of test [10] is HIV-1 Env of strain TRO.11 (HIV-1).
Test [11] concerns the target HIV-1 Env of strain SC422661.8 (HIV-1).
The target in test [12] is HIV-1 Env of strain AC10.0.29 (HIV-1).
The target in test [13] is HIV-1 Env of strain ZM214M.PL15 (HIV-1). The source holds these as a separate data set.
Test [14] has as its target HIV-1 Env of strain QH0692.42 (HIV-1).
Test [15] addresses HIV-1 Env of strain C2101.c01 (HIV-1).
In test [16] the target is HIV-1 Env of strain 3016.v5.c45 (HIV-1).
Test [17] concerns the target HIV-1 Env of strain Du172.17 (HIV-1).
In test [18] the target is HIV-1 Env of strain CAP210.2.00.E8 (HIV-1).
The target of test [19] is HIV-1 Env of strain CAP45.2.00.G3 (HIV-1). The source holds these as a separate data set.
Test [20] deals with HIV-1 Env of strain TRO.11 (HIV-1). The source holds these as a separate data set.
Test [21] addresses HIV-1 Env of strain SC422661.8 (HIV-1). This is another data set of the same source.
Test [22] concerns the target HIV-1 Env of strain AC10.0.29 (HIV-1). The source holds these as a separate data set.
For test [23], the target named is HIV-1 strain CNE58 envelope (gp120) (HIV-1).
Test [24] has as its target HIV-1 strain ZM135M.PL10a envelope (gp120) (HIV-1).
Test [25] deals with HIV-1 strain 3103.v3.c10 envelope (gp120) (HIV-1).
Test [26] addresses HIV-1 strain Q842.d12 envelope (gp120) (HIV-1).
Test [27] addresses HIV-1 strain Ce0682_E4 envelope (gp120) (HIV-1).
Test [28] deals with HIV-1 strain CNE21 envelope (gp120) (HIV-1).
In test [29] the target is HIV-1 strain 620345.c01 envelope (gp120) (HIV-1).
For test [30], the target named is HIV-1 strain X2131_C1_B5 envelope (gp120) (HIV-1).
Test [31] deals with HIV-1 strain ZM53M.PB12 envelope (gp120) (HIV-1).
Test [32] addresses HIV-1 strain CAP45.2.00.G3 envelope (gp120) (HIV-1).
In test [33] the target is HIV-1 strain WEAU_d15_410_787 envelope (gp120) (HIV-1).
The target of test [34] is HIV-1 strain PVO.4 envelope (gp120) (HIV-1).
Test [35] concerns the target HIV-1 strain CAP210.2.00.E8 envelope (gp120) (HIV-1).
The target in test [36] is HIV-1 strain C3347.c11 envelope (gp120) (HIV-1).
The target of test [37] is HIV-1 strain 3301.v1.c24 envelope (gp120) (HIV-1).
For test [38], the target named is HIV-1 strain TRJO4551.58 envelope (gp120) (HIV-1).
Test [39] has as its target HIV-1 strain C1080.c03 envelope (gp120) (HIV-1).
The target in test [40] is HIV-1 strain Q461.e2 envelope (gp120) (HIV-1).
Test [41] addresses HIV-1 strain Ce703010054_2A2 envelope (gp120) (HIV-1).
For test [42], the target named is HIV-1 strain T250-4 envelope (gp120) (HIV-1).

B1: NIH45-46 IgG (antibody, V domains shown)
VH: QVRLSQSGGQMKKPGESMRLSCRASGYEFLNCPINWIRLAPGRRPEWMGWLKPRGGAVNYARKFQGRVTMTRDVYSDTAFLELRSLTSDDTAVYFCTRGKYCTARDYYNWDFEHWGRGAPVTVSS
VL: EIVLTQSPATLSLSPGETAIISCRTSQSGSLAWYQQRPGQAPRLVIYSGSTRAAGIPDRFSGSRWGADYNLSISNLESGDFGVYYCQQYEFFGQGTKVQVDI
Consider B1, for which the “neutralization IC50” value in test [1] is 0.01 µg/mL; in test [2], 0.36 µg/mL; in test [3], 0.22 µg/mL; in test [4] it was 0.02 µg/mL; in [5], 0.65 µg/mL; in [6], 0.14 µg/mL. Moreover, the “neutralization IC50” value in [7] is 0.05 µg/mL; in test [8], 0.5 µg/mL; in test [9], greater than 50 µg/mL; in test [10], 1.9 µg/mL; in test [11] it was 0.05 µg/mL; in test [12], 0.9 µg/mL. Further, the “neutralization IC50” value was 0.3 µg/mL in test [13]; 0.7 µg/mL in test [14]; 12.8 µg/mL in test [15]; greater than 30 µg/mL in test [16]; greater than 50 µg/mL in test [17]; greater than 50 µg/mL in test [18]. The “neutralization IC50” value in test [19] was greater than 50 µg/mL; in test [20] it was 1 µg/mL; in test [21], 0.06 µg/mL; in test [22], 0.9 µg/mL.

B2: NIH45-46 IgG (antibody, V domains shown)
VH: QVRLSQSGGQMKKPGESMRLSCRASGYEFLNCPINWIRLAPGRRPEWMGWLKPRGGAVNYARKFQGRVTMTRDVYSDTAFLELRSLTSDDTAVYFCTRGKYCTARDYYNWDFEHWGRGAPVTVSS
VL: EIVLTQSPATLSLSPGETAIISCRTSQSGSLAWYQQRPGQAPRLVIYSGSTRAAGIPDRFSGSRWGADYNLSISNLESGDFGVYYCQQYEFFGQGTKVQVDI
Take B2: the “neutralization IC80” value in test [23] stood at 2.08 µg/mL; in test [24], 2.79 µg/mL; in test [25], 6.15 µg/mL; in [26] it was 0.073 µg/mL; in [27], 0.155 µg/mL; in test [28] it was 38.1 µg/mL. The “neutralization IC80” value in test [29] was greater than 50 µg/mL; in test [30], 0.88 µg/mL; in [31], 0.61 µg/mL; in test [32], greater than 50 µg/mL; in test [33], 0.015 µg/mL; in test [34] it was 0.41 µg/mL. Also, the “neutralization IC80” value in test [35] was greater than 50 µg/mL; in [36], 0.094 µg/mL; in test [37] it was 0.033 µg/mL; in test [38] it was 0.13 µg/mL; in test [39], 11.6 µg/mL; in test [40] it was 0.291 µg/mL. Moreover, the “neutralization IC80” value in [41] is 0.538 µg/mL; in test [42] it was greater than 50 µg/mL.
